Laboratory results from patent US20140120109A1 (Regeneron, published 2014).

T1: human TL1A, soluble, CHO-expressed, residues 72-251 of SEQ ID NO:244 with N-terminal His6-tag (human, UniProt O95150 72-251)
T1 sequence: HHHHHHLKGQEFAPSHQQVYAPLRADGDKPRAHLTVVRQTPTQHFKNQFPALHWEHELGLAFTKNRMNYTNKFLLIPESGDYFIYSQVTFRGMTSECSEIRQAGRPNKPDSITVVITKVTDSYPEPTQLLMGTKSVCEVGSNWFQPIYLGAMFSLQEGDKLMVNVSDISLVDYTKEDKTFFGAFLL

T2: cynomolgus monkey TL1A, soluble, CHO-expressed, residues 72-251 of SEQ ID NO:248 with N-terminal His6-tag (cynomolgus monkey (Macaca fascicularis), UniProt O95150 72-251 (human entry))
T2 construct: also called MfTL1A; MfTL1A (CHO)
T2 chain: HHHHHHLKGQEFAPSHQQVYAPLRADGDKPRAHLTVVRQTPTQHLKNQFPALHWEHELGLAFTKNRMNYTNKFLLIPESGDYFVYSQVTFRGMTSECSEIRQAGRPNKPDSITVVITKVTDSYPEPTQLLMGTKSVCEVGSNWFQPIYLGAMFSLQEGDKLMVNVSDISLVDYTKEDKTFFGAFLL

T3: rat TL1A, soluble, CHO-expressed, residues 76-252 of SEQ ID NO:258 with N-terminal His6-tag (rat, UniProt Q8K3Y7 76-252)
T3 construct: also called rTL1A; rTL1A (CHO)
T3 sequence: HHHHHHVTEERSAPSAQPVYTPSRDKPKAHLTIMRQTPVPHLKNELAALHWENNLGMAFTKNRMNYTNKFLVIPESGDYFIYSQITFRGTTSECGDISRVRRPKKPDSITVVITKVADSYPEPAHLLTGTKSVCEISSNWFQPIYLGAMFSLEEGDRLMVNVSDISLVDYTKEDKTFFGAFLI

T4: cynomolgus monkey TL1A, soluble, E. coli-expressed, residues 72-251 of SEQ ID NO:248 (cynomolgus monkey (Macaca fascicularis), UniProt O95150 72-251 (human entry))
T4 chain: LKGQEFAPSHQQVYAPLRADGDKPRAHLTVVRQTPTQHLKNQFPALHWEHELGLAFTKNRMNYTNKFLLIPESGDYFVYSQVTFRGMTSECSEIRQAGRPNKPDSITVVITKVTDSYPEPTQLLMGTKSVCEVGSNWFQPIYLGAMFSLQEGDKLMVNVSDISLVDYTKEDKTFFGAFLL


What was measured:
[1] = molecular target: T1, human TL1A, soluble, CHO-expressed, …; experiment: cell-based or functional assay
[2] = molecular target: T1, human TL1A, soluble, CHO-expressed, …; experiment: ELISA, blocks hTL1A (10 pM) binding hDcR3-Fc
Outline: (§1)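 Competition sandwich ELISA: biotinylated CHO-expressed ligand (human TL1A, FHM Q167R variant, or cynomolgus TL1A) at fixed concentration preincubated with titrated antibody 1 h at 25 °C, then 1 h on hDR3-Fc or hDcR3-Fc coated wells. Bound ligand detected by streptavidin-HRP/TMB at 450 nm; sigmoidal dose-response fit.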

[3] = molecular target: T2, cynomolgus monkey TL1A, soluble, …; experiment: ELISA, blocks MfTL1A (500 pM) binding hDR3-Fc
Outline: as §1

[4] = molecular target: T2, cynomolgus monkey TL1A, soluble, …; experiment: SPR 25C, mAb captured
Outline: (§2)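 Biacore T100 SPR with captured mAb and soluble TL1A/Fhm analyte; ka and kd fitted to a 1:1 model assuming monomeric TL1A. KD = kd/ka; t1/2 (min) = ln2/(60·kd).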

[5] = molecular target: T1, human TL1A, soluble, CHO-expressed, …; experiment: SPR 25C, mAb captured
Outline: as §2

[6] = molecular target: T3, rat TL1A, soluble, CHO-expressed, …; experiment: SPR 25C, mAb captured
Outline: as §2

[7] = molecular target: T1, human TL1A, soluble, CHO-expressed, …; experiment: cell-based or functional assay; remark: listed apart in the source
[8] = molecular target: T4, cynomolgus monkey TL1A, soluble, E. …; experiment: cell-based or functional assay
[9] = molecular target: T1, human TL1A, soluble, CHO-expressed, …; experiment: ELISA, blocks hTL1A (150 pM) binding hDR3-Fc
Outline: as §1

[10] = molecular target: T2, cynomolgus monkey TL1A, soluble, …; experiment: ELISA, blocks MfTL1A (50 pM) binding hDcR3-Fc
Outline: as §1

Binder | Average % Blocking IFN-g, 3 ug/ml mAb [1] | IC50 [2] | IC50 [3] | Kd [4] | t1/2 [4] | Kd [5] | t1/2 [5] | Kd [6] | t1/2 [6] | IC50, NFkB-luciferase reporter [7] | IC50, NFkB-luciferase reporter [8] | IC50 [9] | IC50 [10] | binding result [6]
H4H1725P (antibody, human IgG4 S228P, V domains shown) VH: QVQLVQSGAEVKKPGASVKVSCKASGYTFTGYYMHWVRQAPGQGLEWMGWIKPKSGGTNYVQKFQGRVTMTRDTSINTAYMELNNLKSDDTAVYYCATGGSQDASDFWGQGTMVTVSS VL: DIQMTQSPSSVSASVGGRVTITCRASQDISIWLAWYQQKPGKAPNLLIYAASSLQSGVPSRFSGSGSGTDFTLTISSLQPEDFATYYCQQADSFPLTFGGGTKVEIK | 94% | 0.068 nM | 0.016 nM | 0.346 nM | 1.07 h | 0.0636 nM | 3.08 h | 0.317 nM | 0.433 h | 0.05 nM | 0.02 nM | 0.015 nM | 0.145 nM | –
H4H1742P (antibody, human IgG4 S228P, V domains shown) VH: EVQLVESGGGLVQPGGSLRLSCAASGFTFSNYVMNWVRQAPGKGLEWVSVISGSGGSTHYADSVKGRFTISRDNSKDALYLQMNSLRAEDTAVYYCAKGPLEAYYYYNGMDVWGQGTTVTVSS VL: DIQLTQSPSFLSASVGDRVTITCWASQAISSYLAWYQHKPGRAPKLLIYSTSTLQSGVPSRFSGSGSGTEFTLTISSLQPEDFATYYCQQLNSYPTFGQGTKLEIK | 83% | 0.181 nM | 0.24 nM | 0.115 nM | 9.62 h | 0.0604 nM | 12.6 h | 0.078 nM | 2.4 h | 0.31 nM | 0.07 nM | 0.064 nM | 0.127 nM | –
H4H1745P (antibody, human IgG4 S228P, V domains shown) VH: EVQLVESGGGLVQPGGSLRLSCAASGFTFSSYAMTWVRQAPGKGLEWVSGVSGRGGSTYYADSVKGRFTISRDNSKNTLYLQMNSLRAEDTAVYYCAYWDISSFDYWGQGTLVTVSS VL: DIQLTQSPSFLSASVGDRVTITCWASQGISTYLAWYQQKPGKTPKLLIYAASTLQSGVPSRFSGSGSGTDFTLTISSLQPEDFATYYCQQFNSYPLTFGGGTKVEIK | 91% | 0.058 nM | 0.05 nM | 0.115 nM | 3.85 h | 0.164 nM | 2.87 h | 2.7 nM | 0.0667 h | 0.09 nM | 0.03 nM | 0.018 nM | 0.118 nM | –
H4H1719P (antibody, human IgG4 S228P, V domains shown) VH: EVQLVESGGGLVQPGRSLRLSCVASGFTFQDYAMHWVRQAPGKGLEWVSGINWISDDMGYADSVMGRFTISRDNAKNSLYLQMDSLRAEDTALYYCAKDKGLRFLDYVMDVWGQGTTVTVSA VL: DIVMTQSPLSLPVTPGEPASISCRSTQSLLHRNGHNYLHWYLHKPGQSPQLLIHLGSNRASGVPDRFSGSGSGTDFTLKISRVEAEDVGVYYCMQALQTPYTFGQGTKLEIK | 78% | 0.044 nM | 0.046 nM | 0.417 nM | 0.75 h | 0.481 nM | 0.733 h | 0.364 nM | 0.633 h | 0.06 nM | 0.02 nM | 0.022 nM | 0.061 nM | –
H4H1738P (antibody, human IgG4 S228P, V domains shown) VH: EVQLVESGGALVKPGGSLRLSCAVSGFTFINDWMNWVRQAPGKGLEWVGRIKSTTDGGTTDDAAPVKGRFTISRDDSKNTLYLQMNSLKTEDTAVYYCTRDRNRQRNYFYDGMDVWGQGTTVTVSA VL: DIVMTQSPVSLPVTPGEPASISCRSSQRLLHNNGNNYLDWYLQKPGQSPQLLIYLGSNRASGVPDRFSGSGSGTDFTLKVSRVEAEDVGVYYCMQALQTPYTFGQGTKLEIK | 81% | 0.122 nM | 0.117 nM | 0.361 nM | 1.55 h | 0.608 nM | 1.07 h | – | – | 0.39 nM | 0.07 nM | 0.069 nM | 0.068 nM | no binding (tested: up to 100 nM)
